Experimental data from patent US20220380768A1 (TALLAC THERAPEUTICS, published 2022).

Key:
[1] = target: T1, human CD22 on B cells of human PBMCs (human, UniProt P20273 20-847); experiment: flow cytometry; Alexa Fluor 647-labelled antibody on CD20+ B cells of human PBMCs
T1 construct: whole, on cells; also called CD22 on human B cells
Experimental: (§1) Binding of humanized anti-CD22 antibodies to human or cynomolgus PBMCs was measured by flow cytometry. Trima residuals were received from Vitalant and cynomolgus monkey whole blood were received from BioIVT. Both were diluted 1:4 with Phosphate Buffered Saline (PBS, Gibco). Diluted blood was split into two tubes and underplayed with 15 mL Ficoll-Paque (GE Healthcare). Tubes were centrifuged for 30 minutes at 400×g. PBMCs were collected from the interface, washed and resuspended in FACS buffer (PBS with 0.5% Bovine Serum Albumin (Gibco)). 100K PBMCs from human and cynomolgus monkey were plated in 96-well plates and pelleted by centrifugation for five minutes at 400×g and stained at 4° C. in 100 μl Fixable Viability Dye eFluor 780 (Thermo Fisher) diluted 1:4000 in PBS. Cells were centrifuged and stained at 4° C. in 100 μl FACS buffer for 30 minutes containing FcR Blocking Reagent (Miltenyi Biotec), anti-CD20 and Alexa Fluor 647 conjugated CD22 binding antibodies, which were labeled using Molecular Probes Alexa Fluor 647 Protein Labeling kit (Molecular Probes) according to manufacturer's protocol. Cells were centrifuged and washed twice in 200 μl FACS buffer and fixed in 100 μl 0.5% paraformaldehyde. Cells were analyzed on Attune NxT Flow Cytometer (Thermo Fisher), with subsequent data analysis by Flowjo 10.7 (Treestar). Dead cells were excluded by gating on the eFluor 780-negative population. CD20+ cells were gated to identify B cells and median fluorescent intensity for CD22 was determined.

[2] = target: T2, cynomolgus monkey CD22 on B cells of cynomolgus PBMCs (cynomolgus monkey); experiment: flow cytometry; Alexa Fluor 647-labelled antibody on CD20+ B cells of cynomolgus PBMCs
T2 construct: whole, on cells; also called cynomolgus CD22; Cyno CD22
Experimental: as §1

[3] = target: T3, human CD22 (d1 to d7 domain according to NP_001762.2) (human, UniProt P20273 20-687); experiment: SPR; summary table, column 'CD22 KD (nM)'
T3 construct: domain: d1 to d7 domain; also called human CD22-gly; Siglec-2

[4] = target: T2, cynomolgus monkey CD22 on B cells of …; experiment: flow cytometry; Alexa Fluor 647-labelled antibody, cynomolgus PBMCs
Experimental: as §1
(§2) The fold increase in binding was determined by calculating the ratio of CD22 median fluorescent intensity on CD20⁺ over CD20⁻ cells.

[5] = target: T3, human CD22 (d1 to d7 domain according …); experiment: SPR; mAb supernatant captured on protein A chip, human CD22 injected
Experimental: Binding of humanized anti-CD22 antibodies to human CD22 was measured by surface plasmon resonance (SPR). For assessment of binding by SPR, biotinylated protein A (15 μg/mL) was immobilized to the surface of an NLC chip. 30 μL of mAb supernatant was added to 150 μL of PBS-T and captured over the protein A surface. Serial dilutions of human CD22-gly (300 nM, 3× dilution) were injected over the mAb-coated chips, and binding kinetics were determined. Chips were regenerated using 4:1 v/v of Pierce IgG elution butter/4M NaCl.

[6] = target: T1, human CD22 on B cells of human PBMCs; experiment: flow cytometry; Alexa Fluor 647-labelled antibody, human PBMCs
Experimental: as §1, §2

Binder	CD22 Median Fluorescent Intensity on CD20+ cells [1]	CD22 Median Fluorescent Intensity on CD20+ cells [2]	Kd [3] [nM]	CD22: CD20+/CD20- (ratio of median fluorescent intensity) [4] [fold]	Kd [5] [nM]	koff [5] [s⁻¹]	kon [5] [M⁻¹ s⁻¹]	CD22: CD20+/CD20- (ratio of median fluorescent intensity) [6] [fold]
TNT70 (antibody, human IgG1, kappa, V domains shown) VH: QVQLLESGGGVVQPGGSLRLSCAASGFAFSIYDMNWVRQAPGKGLEWVSAISSGGGTTYYADSVKGRFTISRDNAKNSLYLQMNSLRAEDTAVYYCARHSGYGTHWGVLFAYWGRGTLVTVSS VL: DIQMTQSPSSLSASVGDRVTITCRASQDIHGYLNWYQQKPGKAPKLLIYYTSILHSGVPSRFSGSGSGTDFTLTISSLQPEDFATYFCQQGNTLPWTFGQGTKLEIKR	1560	1290						
TNT79 (antibody, human IgG1, kappa, V domains shown) VH: EVQLVESGGGLVQPGGSLRLSCAASGFTFSSYEMNWVRQAPGKGLEWVSYISSSGSTIYYADSVKGRFTISRDNAKNSLYLQMNSLRAEDTAVYYCARHSGYGTHWGVLFAYWGRGTLVTVSS VL: DIQMTQSPSSLSASVGDRVTITCRASQSISSYLNWYQQKPGKAPKLLIYAASSLQSGVPSRFSGSGSGTDFTLTISSLQPEDFATYYCQQGNTLPWTFGQGTKLEIKR	1300	349	23					
TNT86 (antibody, human IgG1, kappa, V domains shown) VH: QVQLLESGGGVVQPGGSLRLSCAASGFAFSIYDMNWVRQAPGKGLEWVSAISSGGGTTYYADSVKGRFTISRDNAKNSLYLQMNSLRAEDTAVYYCARHSGYGTHWGVLFAYWGRGTLVTVSS VL: DIVMTQTPLSLSVTPGQPASISCRASQDIHGYLNWYQQKPGQSPQLLIYYTSILHSGVPDRFSGSGSGTDFTLKISRVEAEDVGVYFCQQGNTLPWTFGGGTKLEIKR	1570	1430	1.1	10.9	1.09	0.000141	130000	23.9
TNT78 (antibody, human IgG1, kappa, V domains shown) VH: QVQLLESGGGVVQPGGSLRLSCAASGFAFSIYDMNWVRQAPGKGLEWVSAISSGGGTTYYADSVKGRFTISRDNAKNSLYLQMNSLRAEDTAVYYCARHSGYGTHWGVLFAYWGRGTLVTVSS VL: DIQMTQSPSSLSASVGDRVTITCRASQSISSYLNWYQQKPGKAPKLLIYAASSLQSGVPSRFSGSGSGTDFTLTISSLQPEDFATYYCQQGNTLPWTFGQGTKLEIKR	1210	112	25	1.2	24.9	0.00485	195000	19.8
TNT75 (antibody, human IgG1, kappa, V domains shown) VH: EVQLVESGGGLVQPGGSLRLSCAASGFTFSSYEMNWVRQAPGKGLEWVSYISSSGSTIYYADSVKGRFTISRDNAKNSLYLQMNSLRAEDTAVYYCARHSGYGTHWGVLFAYWGRGTLVTVSS VL: DIQMTQSPSSVSASVGDRVTITCRASQDIHGYLAWYQQKPGKAPKLLIYYTSSLQSGVPSRFSGSGSGTDFTLTISSLQPEDFATYYCQQGNTLPWTFGQGTKLEIKR	1630	588	30	6.7	30	0.0084	280000	26.7
TNT73 (antibody, human IgG1, kappa, V domains shown) VH: EVQLVESGGGLVQPGGSLRLSCAASGFAFSIYDMSWVRQAPGKGLEWVAYISSGGGTTYYPDTVKGRFTISRDNSKNTLYLQMNSLRAEDTAVYYCARHSGYGTHWGVLFAYWGRGTLVTVSS VL: DIQMTQSPSSVSASVGDRVTITCRASQDIHGYLAWYQQKPGKAPKLLIYYTSSLQSGVPSRFSGSGSGTDFTLTISSLQPEDFATYYCQQGNTLPWTFGQGTKLEIKR	1410	216	14	1.9	14.5	0.0023	158000	19.9
TNT69 (antibody, human IgG1, kappa, V domains shown) VH: EVQLVESGGGLVQPGGSLRLSCAASGFAFSIYDMSWVRQAPGKGLEWVAYISSGGGTTYYPDTVKGRFTISRDNSKNTLYLQMNSLRAEDTAVYYCARHSGYGTHWGVLFAYWGRGTLVTVSS VL: DIQMTQSPSSLSASVGDRVTITCRASQDIHGYLNWYQQKPGKAPKLLIYYTSILHSGVPSRFSGSGSGTDFTLTISSLQPEDFATYFCQQGNTLPWTFGQGTKLEIKR	1610	1410	0.6	14.9	0.624	0.000126	201000	25.4
TNT87 (antibody, human IgG1, kappa, V domains shown) VH: EVQLVESGGGLVQPGGSLRLSCAASGFTFSSYEMNWVRQAPGKGLEWVSYISSSGSTIYYADSVKGRFTISRDNAKNSLYLQMNSLRAEDTAVYYCARHSGYGTHWGVLFAYWGRGTLVTVSS VL: DIVMTQTPLSLSVTPGQPASISCRASQDIHGYLNWYQQKPGQSPQLLIYYTSILHSGVPDRFSGSGSGTDFTLKISRVEAEDVGVYFCQQGNTLPWTFGGGTKLEIKR	1440	1370	0.7					
TNT85 (antibody, human IgG1, kappa, V domains shown) VH: EVQLVESGGGLVQPGGSLRLSCAASGFAFSIYDMSWVRQAPGKGLEWVAYISSGGGTTYYPDTVKGRFTISRDNSKNTLYLQMNSLRAEDTAVYYCARHSGYGTHWGVLFAYWGRGTLVTVSS VL: DIVMTQTPLSLSVTPGQPASISCRASQDIHGYLNWYQQKPGQSPQLLIYYTSILHSGVPDRFSGSGSGTDFTLKISRVEAEDVGVYFCQQGNTLPWTFGGGTKLEIKR	1580	1380	1.3	9.6	1.25	0.000169	135000	23.1
TNT74 (antibody, human IgG1, kappa, V domains shown) VH: QVQLLESGGGVVQPGGSLRLSCAASGFAFSIYDMNWVRQAPGKGLEWVSAISSGGGTTYYADSVKGRFTISRDNAKNSLYLQMNSLRAEDTAVYYCARHSGYGTHWGVLFAYWGRGTLVTVSS VL: DIQMTQSPSSVSASVGDRVTITCRASQDIHGYLAWYQQKPGKAPKLLIYYTSSLQSGVPSRFSGSGSGTDFTLTISSLQPEDFATYYCQQGNTLPWTFGQGTKLEIKR	1310		16		15.6			
TNT80 (antibody, human IgG1, kappa, V domains shown) VH: QVQLQESGPGLVKPSDTLSLTCTVSGFAFSIYDMSWIRQPPGKGLEWIAYISSGGGTTYYNPSLKSRVTISVDTSKNQFSLKLSSVTAADTAVYYCARHSGYGTHWGVLFAYWGRGTLVTVSS VL: DIQMTQSPSSLSASVGDRVTITCRASQSISSYLNWYQQKPGKAPKLLIYAASSLQSGVPSRFSGSGSGTDFTLTISSLQPEDFATYYCQQGNTLPWTFGQGTKLEIKR	1210	159						
TNT76 (antibody, human IgG1, kappa, V domains shown) VH: QVQLQESGPGLVKPSDTLSLTCTVSGFAFSIYDMSWIRQPPGKGLEWIAYISSGGGTTYYNPSLKSRVTISVDTSKNQFSLKLSSVTAADTAVYYCARHSGYGTHWGVLFAYWGRGTLVTVSS VL: DIQMTQSPSSVSASVGDRVTITCRASQDIHGYLAWYQQKPGKAPKLLIYYTSSLQSGVPSRFSGSGSGTDFTLTISSLQPEDFATYYCQQGNTLPWTFGQGTKLEIKR	1190	140						
